Measured values from IntAct's records for PubMed 19366670.

B1: 10 kDa anti-sigma factor (Enterobacteria phage T4), P32267 (parent)
chain: MNKNIDTVREIITVASILIKFSREDIVENRANFIAFLNEIGVTHEGRKLNQNSFRKIVSELTQEDKKTLIDEFNEGFEGVYRYLEMYTNK

Variants of: B1
Settings: with rpob_ecoli rpoB

Row | Variant | effect of a mutation on the interaction
1 | MNKNIDTVREIITVASILIKFSREDIVENRANFIAFLNEIGVTHEGRKLNQNSFRKIVSELTQEDKKTLIDEFDEGFEGVYRYLEMYTNK [N74D] | decreasing interaction strength
